# Experiment: soluble on expression in E. coli; label from the status in PepcDB or PDB records
row,Sequence,soluble on expression in E. coli
1,MSLFHFVIKGTGFSSKNLQEIKVYEETLFCIDEAGVIQEIIEPDAEAYETVLAEQKEAQRFQELPQDSYLLPGFVDLHVHAPQWAQSGTALDIPLYEWLNTYTFPLESKFADLAFAQQVYDELVTQLLANGTTTALYFATIHYEASRRLAEICAEKGQRGLIGKVVMDDLNENPEYYRDQTTQQALEETERFIQEIQTLAQQTKQGVYPVVTPRFIPSCTEEALKGLGELAAKYQVHVQSHCSESDWEHQFVQERFEKNDAQALNDFGLLTEKAVMAHAGFLEEADMNLFHETGTAVAHCPISNAYFGNAVTPIAKLVHQHQVEVGLGSDLSGGFSPSLFDNLKQAVISSRMLEDGVDATKKPEVRGVKTARITVNEAFYLATAGGGQALSLPIGKLEKGYAWDVQIINTSLSQARIPKNPGESLLDIFQKILYLARPENIREVWVQGEKVHDKNLMSATKGVEGHHHHHH,soluble
2,MAHHHHHHMSVPSLRRSDRSGDPTRDRVHYVRAQRQHLVRETRMLQMALEELQEEAERENTEEALMRRGIDTTHRELLRCLLHLALAEQDSTRGAAAASGAQAQYDETSAIICEVLRRYKHEQDAFTQEAKQRLESIREEARQACMNVGDTLAVPQGEHAHSSGVGSVVEATDCDSLRSALEALREMQAEVDEETEATLLSIGRTLFC,not soluble
3,MNTDFQNILKQLGKQAQKEAAEKQAAEKNKQKQEQDFDFSQAVGQLSPLKNRQQYYAPPDKTPIKVRPKDNRADEENYFYIGSTYNDPPASFSKNGQGKNDIQRLKNGYYPVVTDVDLHGYTQEEAQKVLNEFIAFTQKRGVCGEIIHGSGLGSKGYKPVLKNMTRNWLMQHPDVLAYAEPREGNDGCVRILLKRKLRQQD,not soluble
4,MRFVYLSDLDNNQKNFYKEADRQSALLSMLIEKDIDFIGAGANFYQVGSKKDWSQFPLFADSLLHRSNSLISLQWMEKVEEKDIDEHFQQIHKNYPLAKLYTVPKDQPKTYGYVMKNHEPIYIATDIYPRDEKNTPLIGFYSSRERFNLVVEEFLTTGRPSVSDKIRLLQDSLDQSAQKTGMLVYHPVFTSDKTALKGVMVGVVRITSYFDRLVNSTSLGEELVVRIIDTGFDAGDDPIMYQSSTWNNFKGVDYTTSVKIENRLWKIEYKSDNKLNEYQRLTLEHHHHHH,not soluble
5,MSLSMKSELRKQVLHEMKAISQEQKQAIDQALTERLLHHPFYQEAKVIATYLSFSHEFQTRELIEQALKDGKKVLIPKTYPKGRMEFVAYDPQQLVKTSFALLEPQGDVEVVDASQIDLIHVPGLAFTTKGYRIGYGGGYYDRYLEHFSGRTLSTIYPCQIQDFIPEEGHHHHHH,not soluble
6,DTGTISTEEFYNFDNWKGFGYELFEDWSRWVYDWLPDGWNLWKELDRNRSGQYHIYDPLALDLDGDGIETVAAKGFSGSLFDHNGNGIRTATGWVSADDGLLVRDLNGNGIIDNGAELFGDNTKLADGSFAKHGYAALAELDSNGDNIINAADAAFQSLRVWQDLNQDGISQANELRTLEELGIQSLDLAYKDVNKNLGNGNTLAQQGSYTKTDGTTAKMGDLLLAADNLHSRFTNKMLSISHVRENTISPFVLGCLNK,not soluble
7,MAHHHHHHMIHEMCFQELSDSILPAHNGEVALMLATGSPFTDAMTTAAPQQDVWGSSLFSLPELGTDLHSEVSQQNIEKSGSNLNCELQTASHVCNLAPVTFKEEQNKTRITESNTTFGPTPSMHCLSFGSVNAQSNIPSIANSTPNPLACSMVCTSQAPQLSFSSLMSIGNTTVPANSSSTTNGLAYQQASPVATVSNGIPAFFTTAQNGGNVVMFAPSNSQQTLCIPTPVPTMIPYYVIAPPQHTVEVNGTMAYSSLSTAPQSMPPVMCGPWTTNTGSVVGSGAPTPVSVSSASGVMPQTFVTSVTTKPSQPVSFSFPSGDSNQNSASASSIIPLCADGSGNQKAPPRGSPPSYDSLRIQITKRRQPSGRQRSGTNVHGSLQGICSYYSYNLSAALKQYEHPDFHVAKPVEQVLPVFVQMFPCELRDRTIIVLNRVVEATCGPDIATVVGIEPRSETSFITLIRTNDVWHLIHKLRCRVLMDRHGFWYAENMEQYLRLKEYCESVRRLPQQIRHFQTDGLPCMPLVVELSRSVNAASVTSLPAPPSFDEVAPIATMERHGRVATLTGSNEDGSSSPRETGEVINAAAVPLPSGVGRV,not soluble
8,MGSDKIHHHHHHMAGTTTTRKKFRVAVSGATVDGREIKPEHLRDAAANYSPDVYGARVNVEHYLSPYPDSDFGAMGDVTALSAEDITDGPLSGRTALYAEIEPSARMKQLTDAGKKVFSSIELHPQFALNGKAYVMGLAMTDTPASLGTERLKFATQQRAQVMAFNNQQAEAPMFSDAIEADVIELTAQRGEEGKQWFNRVMGIMGKGKKSDDERFSQVHQAVEVVAQSQADLSDQFSAVEQARASDKQAIEKLTSDFEALRQKLSVTDGSFSHRPPAGGGNNSQLADY,not soluble
9,MKRSIKHIYLLSDATGETVERVVRAALSQFRDVEARFHRVTRIRSREDVIWALEEVLREPGMVVYTLVDTELAQLLRDEAEAHGLDAIDLISPLLFKLSDFFGEAPQKEPGLLHQINSEYHKRVDAVDFTVKHDDGQDPRGLAKADFILVGVSRSSKTPLSMYLAHKGYKVANVPIVKGIDPPPELYKVDQKRVVGLIIDAERLVQIRTARLRNLGQMPKGSYADYERIEEELEFCRRLYRRNPQWLVIDVTKKSVEESAAEIIQKLAGLEHHHHHH,not soluble
10,MGSDKIHHHHHHMTFIDSPLSQTIALAGGDLHVAVARSDLPLGALCGFASRRNPKRPFLFVSKVLGRHLPVRPQVMRMVHRRLAAKLPANLPGPVVAIGMAETAICLGQGVFEAWRGGSGREDGLFIHSTRYRLRQGLLSTFEESHSHATSHLIHQPAAALDRALCAACRTLVLVDDEASTGATFVALVEANRAAMPNLARIVCVTITDWMGAAKRAEITAAMPVPTTFVSLLEGGYTFEARTVTPPAMPNVTGDGAFKDDLIPVNWGRLGLRRPRPLPAAALAIRAKAGERVLVLGTGEFVFPPFQLARRLSAMGADVRVQATTRSPILEGGDIDGVIDFADAYGDGIPNFLYSTRPGDYDRVLVCYETPPSTAQTALIAALGAEPVFFNAIGGPRT,not soluble
11,MGSDKIHHHHHHMPYSLHLPGYSIGDNAYEKIDAIVSTYGSSVAVIGGKTALEKSRPRLEAALAHSGIEVVDWIVYGHNCTYERVDALCGMPTVQQADMIFGVGGGRAVDTVKVVANRLGKPLFAFPTLGSNCAAATNLSVVYKDDDSLAGYDFQRGPCHHVFIDTTVIAQSPAELLWAGIADGMSKECEVKLQSRGRNLSHAPLMGRNVCSAVTPALMDFGLQALEDCRAGRSSQAIEEVALAIIMTCGYVSNMAVDPGQAYYYNSSLAHAFYNSSTAFPECVGKHLHGEIVSYGVLALLQYDGDMETKRRYVEFYKQMGFPLTLADLDLQESDIPELVSHVPATTEWKTGDFDLERFAQAIIDAQVFA,not soluble
12,MSRRVEFDLSTEDHSDRRRTNTFSSDEDGVPNEVADYLVYFSRMVDEQNVPEILTLYDQAFPDLTERFFRDRMWPDENVVERIIGPGNKLFIILYKELYYRQLYARNTRGPLLVHRYESFMNYQELFSELLSSKDPIPLSLPNVWLWDIIDEFVYQFQAFCLYKANPGKRNADEVEDLINIEENQNAWNIYPVLNILYSLLSKSQIVEQLKALKEKRNPDSVADEFGQSDLYFKLGYFALIGLLRTHVLLGDYHQALKTVQYVDIDPKGIYNTVPTCLVTLHYFVGFSHLMMRNYGEATKMFVNCLLYIQRTKSVQNQQPSKKNFQYDVIGKTWDQLFHLLAICLAIQPQRIDESIASQLSERCGERMMHMANGNIDEFRNAFATGCPKFLSPTTVVYEGVNQSKEPLLRQTQSFLEGIESQMALPVLRGYLKLYTTLPTKKLASFMDVDDEHYDSFIGKLLTYKMIVNELGKEAGPSSADDDEPQTDIDFYVDRDMINIADTKVARHVGEHFIRHIQKLQEVQDVLKRLDIQKP,not soluble
13,PKYQANTQILVNQTKGDNPQFMAQEVQSNIQLVNTYKEIVKSPRILDEVSKDLNDKYSPSKLSSMLTITNQENTQLINIQVKSGHKQDSEKIANSFAKVTSKQIPKIMSVDNVSILSKADGTAVKVAPKT,not soluble
14,MGHHHHHHSHGQSLIVLQNVGGGEAGPQEMSGVQLQPLRPAPEVTTVQLQPAQEVTTVQLQPAQEVTTVQLQPAQEVTTVQLQPVAGQLSNSSGGAVATEAPNLLVVQSGAAEELLTGPGPGEAGDGEASTGVVQDVLFETLQTDEGLQSVLVLSGADGEQTRLCVQEVETLPPGLTEPPATGPPGQKLLIIRSAPATELLDSSNTWRRHRPRCNFLAPPAV,not soluble
15,MDQGMFYLSAAYIVKTMISGGNLLKEYIEERAVAIANYIIDYNATVRQTARKFGISKSTVHKDVTDRLENINPSLAAQARVVLDINKAERHIRGGMATKEKYQHQLQACSRK,not soluble
16,MGSDKIHHHHHHMSINVLIVDDSLSACRVLSRHFLLLDVDKVEFCRDARSAIRTLSKYSDDYQIVVVDLHMPEVDGIEFLMRLSKMEFKGGIIIASGMESRIVEAASQLVEASKLRLLGALMKPVTTEQLRVCVERYRLMAFQGNGVRHKGLMSIDEIRRAINSNKIIPYYQAQVDIASGKIKGFEVLCRLQQGTRLQLITPDKFIDVAECNNALNSLTTKLLNNAIPEWALISQFESCKQCHLSINLTPKQLNQSGWHTRLMQYCEQNLLSPSRLTVEITENQVLDKQRQHSTISQLRMNRIGVAIDDFGTGYTNLSQLCTLPISELKLDRSLVHGIHKDPVSQTILKSMQAISGKLGIHLVAEGVEDIHDLNYLEQIEDISLQGYLICRPKPYSELVRWLKARERLVQA,not soluble
17,MAHHHHHHMLLSVLHAPRQASIAAPLHKVQSCAYAAPDTVSAVLADCLGKDIAPVLRYLTAFATPPVSKPTSHQSHHLAASTRVLRHALVLLLYSFVTTWRGAPPRETPPPPGAIALTREERALALELCRCVAALNESDTGSESIATGERRGDTSAQAHSRDARAEATGSHVTSLEAVTGAQFALVRDALADMLAPDHHSDGSAASTPVRARDSVAGNGPLWRACEAWIAGAVGTAVGASVAPPSSPFAGITGVRMKEEEAVDLLERVNDQLNQIARGGAVNAASRQCGNSAAMP,not soluble
18,MGSDKIHHHHHHMKFDYEKEPSRDILCIDCKSFYASVECAERGLDPLKTMLVVMSNAENAGGLVLSASPMAKKVLGVSNVTRKNQVPAHPDLYVVPPRMNLYMKKNQEINNLYKKFVADEDHSVFSVDESFLDVTASLSYFHCETAYKMARIIQRVVYNHVGIYVTVGIGDNPLLAKLALDNGAKHSPDFIAEWRYDRVPDTVWQLPSLTDFCGIGRRMAKRLNRLGIDSVYELAQANPHLLQETFGMMGLQLYAHSWGIDRTFLGKKAPHKAEKSFGNSQILPRDYARRDQIELVLKELTEQVAARLRKAHCQTECITVYVGYSKGQIDREGRTGWRKQQTIPATNNTKVLITYVLALFREHYLAGTDVRQLGLSYGKLVWNESLQLDLFSEPEEQISEMELNYLIDKIRQKFGFQALIHTSSLLEGATAIHRSGLVGGHAGGNVGLGG,not soluble
19,GPGSMGRNKKSKATAHAQACSDGEREEEHGAVPTTTLPARAEGCEEENGASAAAADGAQGTPDHHSGRCSERGRDSDDDAPKTKKEYRGNRLKKLEVQRKKGKGKGANEDDKAEEAAREGDAHEEPLVVTRQRAVEVLYCPICTFPAEMCEFSGIVEKCRPWLLEHAADLADAEERGRKRRILTEKDRLEAMLEGRGVKKALERIVVLEVEKRTGRRMITSVFGMDLFGFNLKDVSRDWRKRFSCGAGVRAAEEGKHQDCIDIQGNVVDQLADMLITKYKIPKESVYLMEGKKKVPYPY,not soluble
20,MFENESLSFEEQTIIQAAERYVQQELANEASGHDWWHIYRVTQLAKTIAEKEQANLFLCILTALLHDIGDEKFNESEEAGLLKVQQWLEANNVSTEQTNHILSIIANMSFKGGNTGKTVTTLEGKVVQDADRLDAIGAIGIARVMAYSGNKGRLIHDPHKQPREQLTQEEYRNGEDTAIMHFYEKLLKLKEQMNTNYGRLLAEKRHQFMELYLEEFYQEWDGHRLEHHHHHH,soluble

# From the DeepSol protein solubility set
